Test [1] concerns the target T1, recombinant human CD71 protein (human, UniProt P02786 89-760).
T1 construct: also called recombinant CD71
In words: ELISA, 1 µg/mL recombinant human CD71, uncleaved. The protocol: (§1) The amount of bound antibody was detected by incubation and detection by goat anti-human antibody conjugated to horseradish peroxidase and Ultra TMB (Thermo Fisher Scientific) detection.
(An ELISA detects its analyte on a solid surface through an enzyme-linked reagent.)

Test [2] has as its target T2, human CD71 (transferrin receptor protein 1, TfR1) on human cell lines (human, UniProt P02786 1-760).
T2 construct: whole, on cells; also called huCD71
Put plainly: FACS on H292 cells, uncleaved. The protocol: In this study, the binding of the antibodies of the present disclosure to the indicated cell lines were performed using a standard FACS labelling method. […] These activatable antibodies include the light chain of the correspondingly named sequence listed above in Table C. The cells were labeled with the indicated test article at the indicated concentrations and subsequently detected with an Alexa Fluor 647 labeled goat anti-human IgG secondary antibody.

The target in test [3] is T2, human CD71 (transferrin receptor …). Put plainly: FACS on H292 cells. The protocol:
(§2) In this study, the binding of the antibodies of the present disclosure to the indicated cell lines were performed using a standard FACS labelling method.

For test [4] the target is unchanged. Put plainly: FACS on MDA MB 231 cells. The protocol:
as §2

Test [5] has the same target. In words: FACS on HCC1806 cells. The protocol:
as §2

Test [6] addresses T1, recombinant human CD71 protein. In words: ELISA; Kd against CD71 21.12. The protocol:
as §1

Test [7] has the same target. In words: ELISA, 1 µg/mL CD71, uncleaved. The protocol:
as §1

From patent US20220306759A1 (CYTOMX THERAPEUTICS, published 2022) come the findings set out here.

T2 sequence (P02786 whole entry): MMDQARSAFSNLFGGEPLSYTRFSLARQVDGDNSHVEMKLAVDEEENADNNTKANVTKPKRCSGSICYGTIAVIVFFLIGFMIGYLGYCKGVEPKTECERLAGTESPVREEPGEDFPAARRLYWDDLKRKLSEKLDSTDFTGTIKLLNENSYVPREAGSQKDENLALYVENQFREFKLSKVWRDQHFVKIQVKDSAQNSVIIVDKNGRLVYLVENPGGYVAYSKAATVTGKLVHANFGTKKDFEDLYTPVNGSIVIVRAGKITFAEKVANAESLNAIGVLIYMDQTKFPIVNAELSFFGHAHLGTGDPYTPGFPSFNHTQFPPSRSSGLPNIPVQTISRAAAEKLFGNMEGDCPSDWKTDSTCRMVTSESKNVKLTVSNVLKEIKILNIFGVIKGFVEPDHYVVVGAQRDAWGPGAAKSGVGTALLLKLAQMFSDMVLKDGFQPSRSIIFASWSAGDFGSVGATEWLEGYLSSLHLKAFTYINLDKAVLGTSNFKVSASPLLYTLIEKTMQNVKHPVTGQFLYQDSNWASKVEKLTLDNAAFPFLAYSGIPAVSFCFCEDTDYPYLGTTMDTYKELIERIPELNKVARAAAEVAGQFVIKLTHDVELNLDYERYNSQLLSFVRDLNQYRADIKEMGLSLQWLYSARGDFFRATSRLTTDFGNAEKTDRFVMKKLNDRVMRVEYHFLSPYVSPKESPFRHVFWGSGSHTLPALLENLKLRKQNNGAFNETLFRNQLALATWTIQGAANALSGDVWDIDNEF
T1 sequence (P02786 89-760 limits assumed): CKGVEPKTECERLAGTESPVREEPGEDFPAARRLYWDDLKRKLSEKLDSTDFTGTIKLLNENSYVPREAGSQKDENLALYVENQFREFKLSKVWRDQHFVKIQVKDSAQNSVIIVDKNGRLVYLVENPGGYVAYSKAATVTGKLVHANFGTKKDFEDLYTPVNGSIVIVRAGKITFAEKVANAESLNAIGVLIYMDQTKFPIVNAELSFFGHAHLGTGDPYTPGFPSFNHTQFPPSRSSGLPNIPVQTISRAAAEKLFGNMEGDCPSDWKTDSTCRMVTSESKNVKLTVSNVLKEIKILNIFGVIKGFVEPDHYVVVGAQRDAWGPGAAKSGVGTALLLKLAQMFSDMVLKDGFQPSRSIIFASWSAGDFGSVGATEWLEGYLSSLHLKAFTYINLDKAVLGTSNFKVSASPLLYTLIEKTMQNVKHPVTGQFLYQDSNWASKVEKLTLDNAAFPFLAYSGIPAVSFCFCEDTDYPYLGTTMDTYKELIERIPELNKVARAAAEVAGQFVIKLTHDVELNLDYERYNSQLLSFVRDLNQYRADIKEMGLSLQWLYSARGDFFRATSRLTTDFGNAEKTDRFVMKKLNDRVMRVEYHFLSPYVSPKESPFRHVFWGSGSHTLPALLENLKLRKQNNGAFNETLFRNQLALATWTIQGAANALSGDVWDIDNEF

B1: anti-human CD71 TF02.13-3007 activatable antibody (antibody, human IgG1, kappa)
heavy: not shown
light: QGQSGQGNLCTEHSAALDCRSYGGGSSGGSAVGLLAPPGGLSGRSDIHGGSDIQMTQSPSSLSASVGDRVTITCSASSSVYYMYWFQQKPGKAPKLWIYSTSNLASGVPSRFSGSGSGTDYTLTISSMQPEDFATYYCQQRRNYPYTFGQGTKLEIKRTVAAPSVFIFPPSDEQLKSGTASVVCLLNNFYPREAKVQWKVDNALQSGNSQESVTEQDSKDSTYSLSSTLTLSKADYEKHKVYACEVTHQGLSSPVTKSFNRGEC
In the case of B1, the dissociation constant Kd turned out to be 2.21 nM in test [1] and 86.7 nM in test [2].

B2: CD71 TF02.13-3001-vc-MMAE (antibody, human IgG1, kappa)
heavy: not shown
light: QGQSGQGNLCTEHSAALDCRSYGGGSSGGSAVGLLAPPGGLSGRSDNHGGSDIQMTQSPSSLSASVGDRVTITCSASSSVYYMYWFQQKPGKAPKLWIYSTSNLASGVPSRFSGSGSGTDYTLTISSMQPEDFATYYCQQRRNYPYTFGQGTKLEIKRTVAAPSVFIFPPSDEQLKSGTASVVCLLNNFYPREAKVQWKVDNALQSGNSQESVTEQDSKDSTYSLSSTLTLSKADYEKHKVYACEVTHQGLSSPVTKSFNRGEC
modifications: vc-MMAE conjugated to the antibody; chain and residues not stated
Consider B2, for which, in test [3], the “Bmax (MFI)” value turned out to be 1850 MFI and the Kd came to 53.8 nM.

B3: CD71 TF02.13-3001-PEG2-vc-MMAD (antibody, human IgG1, kappa)
heavy: not shown
light: QGQSGQGNLCTEHSAALDCRSYGGGSSGGSAVGLLAPPGGLSGRSDNHGGSDIQMTQSPSSLSASVGDRVTITCSASSSVYYMYWFQQKPGKAPKLWIYSTSNLASGVPSRFSGSGSGTDYTLTISSMQPEDFATYYCQQRRNYPYTFGQGTKLEIKRTVAAPSVFIFPPSDEQLKSGTASVVCLLNNFYPREAKVQWKVDNALQSGNSQESVTEQDSKDSTYSLSSTLTLSKADYEKHKVYACEVTHQGLSSPVTKSFNRGEC
modifications: PEG2-vc-MMAD conjugated to the antibody; chain and residues not stated
In test [4], B3 had a Kd of 52.6 nM.

B4: CD71 TF02.13-3001-spdb-DM4 (antibody, human IgG1, kappa)
heavy: not shown
light: QGQSGQGNLCTEHSAALDCRSYGGGSSGGSAVGLLAPPGGLSGRSDNHGGSDIQMTQSPSSLSASVGDRVTITCSASSSVYYMYWFQQKPGKAPKLWIYSTSNLASGVPSRFSGSGSGTDYTLTISSMQPEDFATYYCQQRRNYPYTFGQGTKLEIKRTVAAPSVFIFPPSDEQLKSGTASVVCLLNNFYPREAKVQWKVDNALQSGNSQESVTEQDSKDSTYSLSSTLTLSKADYEKHKVYACEVTHQGLSSPVTKSFNRGEC
modifications: spdb-DM4 conjugated to the antibody; chain and residues not stated
Turning to B4, the Kd was 46.9 nM in test [4] and around 200 nM in test [5].

B5: anti-human CD71 TF02.13-3008 activatable antibody (antibody, human IgG1, kappa)
heavy: not shown
light: QGQSGQGNLCTEHSAALDCRSYGGGSSGGSAVGLLAPPGGLSGRSDQHGGSDIQMTQSPSSLSASVGDRVTITCSASSSVYYMYWFQQKPGKAPKLWIYSTSNLASGVPSRFSGSGSGTDYTLTISSMQPEDFATYYCQQRRNYPYTFGQGTKLEIKRTVAAPSVFIFPPSDEQLKSGTASVVCLLNNFYPREAKVQWKVDNALQSGNSQESVTEQDSKDSTYSLSSTLTLSKADYEKHKVYACEVTHQGLSSPVTKSFNRGEC
B5: the Kd in test [1] was determined as 2.61 nM; in test [2], 97.8 nM.

B6: anti-human CD71 TF02.13-3011 activatable antibody (antibody, human IgG1, kappa)
heavy: not shown
light: QGQSGQGNLCTEHSAALDCRSYGGGSSGGSAVGLLAPPGGLSGRSDNPGGSDIQMTQSPSSLSASVGDRVTITCSASSSVYYMYWFQQKPGKAPKLWIYSTSNLASGVPSRFSGSGSGTDYTLTISSMQPEDFATYYCQQRRNYPYTFGQGTKLEIKRTVAAPSVFIFPPSDEQLKSGTASVVCLLNNFYPREAKVQWKVDNALQSGNSQESVTEQDSKDSTYSLSSTLTLSKADYEKHKVYACEVTHQGLSSPVTKSFNRGEC
Regarding B6, the Kd came to 0.778 nM in test [1] and 67.4 nM in test [2].

B7: anti-human CD71 TF02-2001 activatable antibody (antibody, human IgG1, kappa)
heavy: not shown
light: QGQSGQGNLCTEHSFALDCRSYGGGSSGGSISSGLLSGRSDNHGGGSDIQMTQSPSSLSASVGDRVTITCSASSSVYYMYWFQQKPGKAPKLWIYSTSNLASGVPSRFSGSGSGTDYTLTISSMQPEDFATYYCQQRRNYPYTFGQGTKLEIKRTVAAPSVFIFPPSDEQLKSGTASVVCLLNNFYPREAKVQWKVDNALQSGNSQESVTEQDSKDSTYSLSSTLTLSKADYEKHKVYACEVTHQGLSSPVTKSFNRGEC
With B7, the “ME (masking efficiency)” value in test [6] was 153 fold. Besides, the dissociation constant (Kd) in test [7] is 21.4 nM.

B8: CD71 TF02.13-2001-spdb-DM4 (antibody, human IgG1, kappa)
heavy: not shown
light: QGQSGQGNLCTEHSAALDCRSYGGGSSGGSISSGLLSGRSDNHGGGSDIQMTQSPSSLSASVGDRVTITCSASSSVYYMYWFQQKPGKAPKLWIYSTSNLASGVPSRFSGSGSGTDYTLTISSMQPEDFATYYCQQRRNYPYTFGQGTKLEIKRTVAAPSVFIFPPSDEQLKSGTASVVCLLNNFYPREAKVQWKVDNALQSGNSQESVTEQDSKDSTYSLSSTLTLSKADYEKHKVYACEVTHQGLSSPVTKSFNRGEC
modifications: spdb-DM4 conjugated to the antibody; chain and residues not stated
As for B8, the dissociation constant Kd in test [5] was around 200 nM.

B9: anti-human CD71 TF02.13-2012 activatable antibody (antibody, human IgG1, kappa)
heavy: not shown
light: QGQSGQGNLCTEHSAALDCRSYGGGSSGGSISSGLLSGRSANPGGGSDIQMTQSPSSLSASVGDRVTITCSASSSVYYMYWFQQKPGKAPKLWIYSTSNLASGVPSRFSGSGSGTDYTLTISSMQPEDFATYYCQQRRNYPYTFGQGTKLEIKRTVAAPSVFIFPPSDEQLKSGTASVVCLLNNFYPREAKVQWKVDNALQSGNSQESVTEQDSKDSTYSLSSTLTLSKADYEKHKVYACEVTHQGLSSPVTKSFNRGEC
For B9, the Kd in test [1] was 1.64 nM; in test [2] it was 39.1 nM.

B10: anti-human CD71 TF02.13-2013 activatable antibody (antibody, human IgG1, kappa)
heavy: not shown
light: QGQSGQGNLCTEHSAALDCRSYGGGSSGGSISSGLLSGRSANIGGGSDIQMTQSPSSLSASVGDRVTITCSASSSVYYMYWFQQKPGKAPKLWIYSTSNLASGVPSRFSGSGSGTDYTLTISSMQPEDFATYYCQQRRNYPYTFGQGTKLEIKRTVAAPSVFIFPPSDEQLKSGTASVVCLLNNFYPREAKVQWKVDNALQSGNSQESVTEQDSKDSTYSLSSTLTLSKADYEKHKVYACEVTHQGLSSPVTKSFNRGEC
With B10, the dissociation constant Kd in test [1] was found to be 3.25 nM; in test [2], 70.3 nM.

B11: anti-human CD71 TF02.13-2011 activatable antibody (antibody, human IgG1, kappa)
heavy: not shown
light: QGQSGQGNLCTEHSAALDCRSYGGGSSGGSISSGLLSGRSDNPGGGSDIQMTQSPSSLSASVGDRVTITCSASSSVYYMYWFQQKPGKAPKLWIYSTSNLASGVPSRFSGSGSGTDYTLTISSMQPEDFATYYCQQRRNYPYTFGQGTKLEIKRTVAAPSVFIFPPSDEQLKSGTASVVCLLNNFYPREAKVQWKVDNALQSGNSQESVTEQDSKDSTYSLSSTLTLSKADYEKHKVYACEVTHQGLSSPVTKSFNRGEC
Regarding B11, the Kd stood at 4.27 nM in test [1] and 57.1 nM in test [2].

B12: anti-human CD71 TF02.13-2008 activatable antibody (antibody, human IgG1, kappa)
heavy: not shown
light: QGQSGQGNLCTEHSAALDCRSYGGGSSGGSISSGLLSGRSDQHGGGSDIQMTQSPSSLSASVGDRVTITCSASSSVYYMYWFQQKPGKAPKLWIYSTSNLASGVPSRFSGSGSGTDYTLTISSMQPEDFATYYCQQRRNYPYTFGQGTKLEIKRTVAAPSVFIFPPSDEQLKSGTASVVCLLNNFYPREAKVQWKVDNALQSGNSQESVTEQDSKDSTYSLSSTLTLSKADYEKHKVYACEVTHQGLSSPVTKSFNRGEC
Consider B12, for which the figures for the dissociation constant Kd in test [1] and in test [2] were 15.1 nM and 90 nM, respectively.

B13: anti-human CD71 TF02.13-2007 activatable antibody (antibody, human IgG1, kappa)
heavy: not shown
light: QGQSGQGNLCTEHSAALDCRSYGGGSSGGSISSGLLSGRSDIHGGGSDIQMTQSPSSLSASVGDRVTITCSASSSVYYMYWFQQKPGKAPKLWIYSTSNLASGVPSRFSGSGSGTDYTLTISSMQPEDFATYYCQQRRNYPYTFGQGTKLEIKRTVAAPSVFIFPPSDEQLKSGTASVVCLLNNFYPREAKVQWKVDNALQSGNSQESVTEQDSKDSTYSLSSTLTLSKADYEKHKVYACEVTHQGLSSPVTKSFNRGEC
With B13, binding in test [2] was characterised by a dissociation constant (Kd) of 70.3 nM.

B14: anti-human CD71 TF02.13-3013 activatable antibody (antibody, human IgG1)
heavy: not shown
VL: QGQSGQGNLCTEHSAALDCRSYGGGSSGGSAVGLLAPPGGLSGRSANIGGSDIQMTQSPSSLSASVGDRVTITCSASSSVYYMYWFQQKPGKAPKLWIYSTSNLASGVPSRFSGSGSGTDYTLTISSMQPEDFATYYCQQRRNYPYTFGQGTKLEIK
notes: without spacer 851
For B14, the figures for the Kd in test [1] and in test [2] were 4.91 nM and 78.3 nM, respectively.

B15: CD71 Ab21.12-PEG2-vc-MMAD (antibody, human IgG1, kappa)
heavy: not shown
light: DIQMTQSPSSLSASVGDRVTITCSASSSVYYMYWFQQKPGKAPKLWIYSTSNLASGVPSRFSGSGSGTDYTLTISSMQPEDFATYYCQQRRNYPYTFGQGTKLEIKRTVAAPSVFIFPPSDEQLKSGTASVVCLLNNFYPREAKVQWKVDNALQSGNSQESVTEQDSKDSTYSLSSTLTLSKADYEKHKVYACEVTHQGLSSPVTKSFNRGEC
modifications: PEG2-vc-MMAD conjugated to the antibody; chain and residues not stated
notes: antibody drug conjugate of Ab21.12
Molecule B15 gave a Kd in test [4] of 1.47 nM.

B16: CD71 Ab 21.12-vc-MMAE (antibody, human IgG1, kappa)
heavy: not shown
light: DIQMTQSPSSLSASVGDRVTITCSASSSVYYMYWFQQKPGKAPKLWIYSTSNLASGVPSRFSGSGSGTDYTLTISSMQPEDFATYYCQQRRNYPYTFGQGTKLEIKRTVAAPSVFIFPPSDEQLKSGTASVVCLLNNFYPREAKVQWKVDNALQSGNSQESVTEQDSKDSTYSLSSTLTLSKADYEKHKVYACEVTHQGLSSPVTKSFNRGEC
modifications: vc-MMAE conjugated to the antibody; chain and residues not stated
notes: as for B15
On to B16, for which, in test [3], the “Bmax (MFI)” value is 1600 MFI and binding was put at a Kd of 1.33 nM. Also, the Kd in test [5] came out at 6.4 nM.

B17: CD71 Ab 21.12-spdb-DM4 (antibody, human IgG1, kappa)
heavy: not shown
light: DIQMTQSPSSLSASVGDRVTITCSASSSVYYMYWFQQKPGKAPKLWIYSTSNLASGVPSRFSGSGSGTDYTLTISSMQPEDFATYYCQQRRNYPYTFGQGTKLEIKRTVAAPSVFIFPPSDEQLKSGTASVVCLLNNFYPREAKVQWKVDNALQSGNSQESVTEQDSKDSTYSLSSTLTLSKADYEKHKVYACEVTHQGLSSPVTKSFNRGEC
modifications: spdb-DM4 conjugated to the antibody; chain and residues not stated
notes: as for B15
B17: in test [4], the dissociation constant (Kd) is 1.24 nM.

As usually defined, the Kd is the constant that tells how readily two partners part at equilibrium.
